In the RNAGym collection of RNA variant scans (doi:10.7554/elife.80360):

B1: HDV Ribozyme (parent)
chain: GGCCGGCAUGGUCCCAGCCUCCUCGCUGGCGCCGGCUGGGCAACAUUCCGAGGGGACCGUCCCCUCGGUAAUGGCGAAUGGGACCCA

Variants of: B1
Assay: self-cleavage, relative activity (ratio to wild type); higher = more cleavage; co-transcriptional

Variant | self-cleavage
C32A C85A | 0.341
C48A G55C | 1.06
C26G C57G | 1.04
C26A C44U | 0.95
G38U G68U | 0.119
G6C C48G | 0.199
G11C C64U | 0.269
C30A G50U | 0.729
C4U C41U | 0.567
C19A U37A | 0.0519
C4G G82U | 0.0421
U37C C57A | 1
C26U A71C | 0.748
G39A C41G | 0.228
U27A A42C | 0.0831
U27A U60C | 1.21
C7A C18G | 0
C41A C44A | 0.404
G50U A83C | 0.375
C19A G73C | 0.058
G34C G38U | 0.0378
C49G A78C | 0.262
U20G C32A | 0
C21U U79G | 0.0426

Variant | self-cleavage
C33G C62G | 0.196
C3U C64U | 0.954
A77C A87C | 0.391
U69A C84U | 0.639
G2C G39U | 0.0246
C7G C49G | 0.123
G28C U47C | 0.0665
A8C U9A | 0.755
U12C A16G | 0
C26A C64U | 1.13
C15G G68A | 0.525
G39A C64U | 0.484
G6U C85G | 0.297
U46G C84G | 0.185
G2A G59U | 0.19
G34A G76U | 0.269
C13U U72G | 0.266
G1C C75G | 0.178
G55A G59U | 0.973
G10U C62U | 0.722
U27C A78G | 0.227
G40U G54C | 0.513
G74A A78C | 0.0811
G25C A70U | 0.0898

Variant | self-cleavage
G6A C19G | 0
G10A A16U | 0.929
A8C C14U | 0.831
G39C A83C | 0.243
A16C C33U | 0.688
U20A C49U | 0.0665
C26A C36A | 0.143
C14G C86G | 0.604
G50U A71C | 0.435
A8U C44U | 0.415
G52A U72C | 0.591
U60C G74U | 0.348
U46C A71U | 0.767
A42U A43C | 0.208
G28A G80U | 0.0989
C36A A42U | 0.122
C19G C86U | 0.26
G34C C44G | 0.0332
G81U A87C | 0.444
U9G C32A | 0.277
U79C C86U | 0.696
C24G A43C | 0.0811
C15G C33A | 0.0405
C32A A42U | 0.166

Variant | self-cleavage
C63A C75A | 0.338
C26A U37C | 1.13
G6A G80A | 0.147
A8G C75G | 0.525
A16C C48G | 0.437
G1A C26G | 0
G38C A56C | 0.181
C14G U79A | 0.266
C15A G34A | 0.0723
A51C U79A | 0.959
G5A C7U | 0.0978
A16C A45G | 1.05
U47A G82C | 0.489
G54A C64A | 0.453
U72C G82U | 0.145
G80A G81U | 0.0936
C22G C62G | 0.111
C66A G73U | 0.171
G74U G82U | 0.281
C22A U79C | 0.18
G10C U12G | 0
U9G U27C | 0.68
G31A G54A | 0.295
A8G C58G | 0.895

Variant | self-cleavage
G40A G80A | 0.427
G11A C33G | 0.0554
C13G C62G | 0.158
C30G G80A | 0.141
C13A C15A | 0
C15G A43C | 0.0875
G2U U65A | 0.02
A71G C85G | 1.03
C7A C75A | 0.0923
U12A G67U | 0.256
C13U U60G | 0.831
C75G G82C | 0.271
U27G G59A | 0.855
C4G A43C | 0.0519
C21G C24A | 0.0437
G10C G74A | 0.119
C24A A70U | 0.612
A71G A77U | 0.764
G40C A78C | 0.147
G10U C21G | 0
G1A G76U | 0.185
C26G A70G | 0.665
G11C C75A | 0.0536
C19A C61G | 0.095

Variant | self-cleavage
C49U C57U | 1.18
G25U A43C | 0.147
G1A U60A | 0.185
C13U G55A | 0.702
C62G U69C | 0.534
C24A C66G | 0.731
C58G G82A | 0.277
C7U C66G | 0.974
C15U G76C | 1.03
G35U A71C | 0.237
G1U G31C | 0.356
G40C G76U | 0.346
G52C U72G | 0.723
G54U C61G | 0.889
C14U G31C | 0.342
G39U U46C | 0.486
G28A G76U | 0.0923
C19A G35C | 0.125
G54C C64U | 0.82
G17A C61U | 0.904
G17C G80C | 0.0906
U23C G28U | 0.249
U47C C62A | 1.06
G35A G76U | 0.902

Variant | self-cleavage
C30A G52A | 0.522
G29C G34U | 0.181
C19U C58G | 0.0959
G40A C66G | 0.655
C44A U72C | 0.467
A77C C84G | 0.317
G39C A87G | 0.204
C24G G34C | 0.0437
U23C U27A | 0.898
C44G C48A | 0.543
G28A C86A | 0.0256
U12G U27A | 0.831
U9A G80C | 0.189
G29C C48U | 0.135
G29C G80C | 0.0308
C21A A51U | 0.0369
G2C G55A | 0.0941
C7G G25U | 0.0831
A56C A78U | 0.499
U60C U69G | 0.95
G5C G67U | 0.248
C33G G55C | 0.158
G50A G80A | 0.415
